Test [1] has as its target T1, P7mS.
T1 chain: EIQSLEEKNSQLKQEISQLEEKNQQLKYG
The test is described as follows: two-hybrid library CC1.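 Also: natural log of median RNA to DNA barcode read ratio; higher means stronger binding.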 The following applies: mean of both orientations.

For test [2], the target named is T2, P6mS.
T2 chain: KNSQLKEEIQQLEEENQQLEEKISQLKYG
The test is described as follows: two-hybrid library CC1.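 Also: natural log of median RNA to DNA barcode read ratio; higher means stronger binding.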 The following applies: mean of both orientations.

Test [3] deals with T3, P8.
T3 chain: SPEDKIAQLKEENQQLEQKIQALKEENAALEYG
Description: two-hybrid library CC1.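 Also: natural log of median RNA to DNA barcode read ratio; higher means stronger binding.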 The settings on record: mean of both orientations.

In test [4] the target is T4, P4mS.
T4 chain: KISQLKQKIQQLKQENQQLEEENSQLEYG
Description: two-hybrid library CC1.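 Also: natural log of median RNA to DNA barcode read ratio; higher means stronger binding.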 The following applies: mean of both orientations.

Test [5] concerns the target T5, P5SC1.
T5 chain: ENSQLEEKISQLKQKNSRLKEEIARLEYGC
The test is described as follows: two-hybrid library CC1.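 Also: natural log of median RNA to DNA barcode read ratio; higher means stronger binding.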 The settings on record: mean of both orientations.

The target of test [6] is T6, P9.
T6 chain: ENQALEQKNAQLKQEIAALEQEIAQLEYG
The test is described as follows: two-hybrid library CC1.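 Also: natural log of median RNA to DNA barcode read ratio; higher means stronger binding.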 The following applies: mean of both orientations.

Test [7] has as its target T7, P3mS.
T7 chain: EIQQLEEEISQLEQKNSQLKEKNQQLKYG
The test is described as follows: two-hybrid library CC1.

For test [8], the target named is T8, P4.
T8 chain: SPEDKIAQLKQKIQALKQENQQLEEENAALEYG
Description: two-hybrid library CC1. The settings on record: mean of both orientations.

For test [9], the target named is T9, P5SC2.
T9 chain: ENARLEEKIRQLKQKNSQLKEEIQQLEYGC
Description: two-hybrid library CC1. The following applies: mean of both orientations.

The target of test [10] is T10, P6.
T10 chain: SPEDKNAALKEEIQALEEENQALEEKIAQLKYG
Description: two-hybrid library CC1. The settings on record: mean of both orientations.

Test [11] concerns the target T11, P5mS.
T11 chain: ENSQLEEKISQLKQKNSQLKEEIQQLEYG
Description: two-hybrid library CC1. The following applies: mean of both orientations.

For test [12], the target named is T12, P5.
T12 chain: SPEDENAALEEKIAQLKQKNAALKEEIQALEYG
Description: two-hybrid library CC1. The following applies: mean of both orientations.

Test [13] addresses T13, P6SC2.
T13 chain: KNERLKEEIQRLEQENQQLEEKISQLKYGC
The test is described as follows: two-hybrid library CC1. The following applies: mean of both orientations.

The target of test [14] is T14, P7.
T14 chain: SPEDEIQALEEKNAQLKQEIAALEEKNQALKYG
Description: two-hybrid library CC1. The settings on record: mean of both orientations.

For test [15], the target named is T15, P8mS.
T15 chain: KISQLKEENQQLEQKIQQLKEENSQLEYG
The test is described as follows: two-hybrid library CC1. The settings on record: mean of both orientations.

In test [16] the target is T16, P6SC1.
T16 chain: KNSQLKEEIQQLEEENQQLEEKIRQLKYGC
Description: two-hybrid library CC1. The settings on record: mean of both orientations.

In test [17] the target is T17, O5.
T17 chain: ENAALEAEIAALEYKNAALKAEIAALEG
The test is described as follows: two-hybrid library CC0. The settings on record: mean of both orientations.

Test [18] deals with T18, O7.
T18 chain: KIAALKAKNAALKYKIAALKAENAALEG
Description: two-hybrid library CC0. The settings on record: mean of both orientations.

The target of test [19] is T19, O2.
T19 chain: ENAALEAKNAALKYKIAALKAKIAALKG
Description: two-hybrid library CC0. The following applies: mean of both orientations.

Test [20] has as its target T20, O9.
T20 chain: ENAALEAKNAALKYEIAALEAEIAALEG
The test is described as follows: two-hybrid library CC0. The following applies: mean of both orientations.

For test [21], the target named is T21, O8.
T21 chain: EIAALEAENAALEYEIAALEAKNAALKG
The test is described as follows: two-hybrid library CC0. The following applies: mean of both orientations.

Test [22] addresses T22, O13.
T22 chain: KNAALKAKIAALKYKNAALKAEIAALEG
The test is described as follows: two-hybrid library CC0. The settings on record: mean of both orientations.

For test [23], the target named is T23, O4.
T23 chain: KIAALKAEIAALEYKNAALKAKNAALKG
The test is described as follows: two-hybrid library CC0. The settings on record: mean of both orientations.

Test [24] addresses T24, O6.
T24 chain: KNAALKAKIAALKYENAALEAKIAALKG
The test is described as follows: two-hybrid library CC0. The settings on record: mean of both orientations.

The target of test [25] is T25, O14.
T25 chain: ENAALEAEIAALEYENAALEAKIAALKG
Description: two-hybrid library CC0. The settings on record: mean of both orientations.

For test [26], the target named is T26, O15.
T26 chain: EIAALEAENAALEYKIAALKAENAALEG
The test is described as follows: two-hybrid library CC0. The settings on record: mean of both orientations.

Test [27] concerns the target T27, O3.
T27 chain: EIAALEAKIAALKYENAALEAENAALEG
Description: two-hybrid library CC0. The settings on record: mean of both orientations.

In test [28] the target is T28, O16.
T28 chain: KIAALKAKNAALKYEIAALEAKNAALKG
The test is described as follows: two-hybrid library CC0. The settings on record: mean of both orientations.

Turning to EIQQLEEEISQLEQKNSQLKEKNQQLKYG [P3mS], the interaction score in [1] was -2.96; in [2], -2.74; in test [3], -2.54; in test [4], 0.221; in [5], -2.77; in [6], -2.34. Also, the interaction score is -3.24 in [7]; -0.0449 in test [8]; -2.78 in test [9]; -2.8 in test [10]; -2.69 in [11]; -2.93 in test [12]. Besides, the interaction score is -2.5 in test [13], -2.64 in test [14], -2.87 in [15] and -2.8 in [16].

For KNAALKAKIAALKYKNAALKAEIAALEG [O13], the interaction score in [17] is -2.45; in [18] it was -2.81; in [19] it was -2.82; in test [20], -2.75; in test [21], -1.5; in [22], -2.86. Moreover, the interaction score is -2.72 in test [23]; -1.12 in test [24]; 1.21 in test [25]; -0.499 in test [26]; -2.81 in test [27]; -2.87 in test [28].

(Values after PMC10397247.)
